Experimental data taken from patent publication WO2019109974A1 (dated 2019).
One block for each binder: values may come before it.

Tests used:
hPD-L1(ECD)-mFc = molecular target: T1, hPD-L1(ECD)-mFc (human); experiment: ELISA, hPD-L1-mFc coated
T1 construct: Human PD-L1 extracellular domain fused to a mouse antibody heavy chain Fc tag; also called hPD-L1-mFc; PD-L1-mFc

[1] = molecular target: T2, PD-L1 on U2OS cells stably expressing PD-L1 (UniProt Q9NZQ7 19-290, limits assumed); experiment: flow cytometry on PD-L1-U2OS cells, competitor biotin PD-1 protein, MFI
T2 construct: whole, on cells; also called PD-L1-U2OS; U2OS PD-L1细胞
T2 sequence (Q9NZQ7 19-290 limits assumed): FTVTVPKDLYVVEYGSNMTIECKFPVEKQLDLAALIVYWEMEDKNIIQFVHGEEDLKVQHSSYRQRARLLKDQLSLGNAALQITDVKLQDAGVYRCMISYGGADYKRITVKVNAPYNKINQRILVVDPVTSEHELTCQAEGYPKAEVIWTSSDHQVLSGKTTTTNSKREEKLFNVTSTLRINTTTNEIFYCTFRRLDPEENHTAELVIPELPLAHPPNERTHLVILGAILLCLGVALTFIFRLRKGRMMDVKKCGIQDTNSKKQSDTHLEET

[2] = molecular target: PD-L1抗原 (PD-L1 antigen coated in detection method 1.2) (human, UniProt Q9NZQ7 19-238, limits assumed); experiment: competition ELISA: PD-L1 antigen coated, competitor biotin PD-1-mFc
Chain of PD-L1抗原 (PD-L1 antigen coated in detection method 1.2) (Q9NZQ7 19-238 limits assumed): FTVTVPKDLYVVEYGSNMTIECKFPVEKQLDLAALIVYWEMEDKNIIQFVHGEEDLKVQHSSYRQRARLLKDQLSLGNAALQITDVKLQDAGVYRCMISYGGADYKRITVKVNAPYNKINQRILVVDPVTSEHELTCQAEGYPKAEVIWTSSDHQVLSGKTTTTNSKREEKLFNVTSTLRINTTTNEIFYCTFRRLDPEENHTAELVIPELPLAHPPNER

[3] = molecular target: T3, 人PD-L1抗原 (hPD-L1-his, Sino biological 10084-H08H-200) (human, UniProt Q9NZQ7 19-239); experiment: SPR (Biacore T200), antibody captured by anti-human antibody on CM5, PD-L1-his as analyte, 1:1 Langmuir fit
T3 construct: Bought analyte of the Biacore assay; also called human PD-L1 antigen
T3 sequence (Q9NZQ7 19-239 limits assumed): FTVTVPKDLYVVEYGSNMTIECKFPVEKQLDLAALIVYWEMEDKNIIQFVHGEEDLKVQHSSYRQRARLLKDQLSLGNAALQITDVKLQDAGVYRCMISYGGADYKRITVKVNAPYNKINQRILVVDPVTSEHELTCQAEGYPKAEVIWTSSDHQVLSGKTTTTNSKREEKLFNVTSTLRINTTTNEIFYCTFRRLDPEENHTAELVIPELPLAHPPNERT

T1 sequence (chain, as listed by the source limits assumed): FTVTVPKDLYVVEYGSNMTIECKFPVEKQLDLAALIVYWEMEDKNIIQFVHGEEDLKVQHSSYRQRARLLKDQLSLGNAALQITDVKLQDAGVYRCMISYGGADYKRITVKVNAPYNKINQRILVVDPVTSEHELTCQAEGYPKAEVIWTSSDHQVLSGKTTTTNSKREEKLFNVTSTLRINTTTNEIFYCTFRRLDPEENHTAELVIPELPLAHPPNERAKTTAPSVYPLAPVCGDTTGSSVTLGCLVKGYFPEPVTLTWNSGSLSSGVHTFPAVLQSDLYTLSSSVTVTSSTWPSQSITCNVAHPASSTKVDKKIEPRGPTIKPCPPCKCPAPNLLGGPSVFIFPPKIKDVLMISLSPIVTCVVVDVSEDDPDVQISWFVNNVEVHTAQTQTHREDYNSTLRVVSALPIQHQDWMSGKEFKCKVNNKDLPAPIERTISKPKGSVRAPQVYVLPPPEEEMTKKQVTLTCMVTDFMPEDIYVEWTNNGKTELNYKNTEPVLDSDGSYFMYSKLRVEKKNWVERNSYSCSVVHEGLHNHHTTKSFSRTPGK

- EC50 (hPD-L1(ECD)-mFc): 0.145 µg/mL
- IC50 [1]: 0.248 µg/mL
- IC50 [2]: 0.462 µg/mL
B1: 嵌合抗体2-1(Chi2-1) chimeric antibody 2-1 (antibody, human IgG1, kappa, V domains shown)
VH: QVQLQQPGAELVRPGASVKLSCKASGYSFTFYWMNWVKQRPGQGLEWIGMIHPSDSETRLNQKFKDKATLTVDKSSSTAYMQLSSPTSEDTAVYYCVRNMVWSRQVMDYWGQGTSVTVSS
VL: DVVMTQTPLTLSVTIGQPASISCKSSQSLLDSDGNTYLNWLLQRPGESPKLLLYLVSKLDSGVPDRFTGSGSGTDFTLKIGRVEAADLGVYYCLQSTHFPYTFGGGTKLEIKR
notes: Mouse variable regions joined to human IgG1 and human kappa constant regions

- IC50 [1]: 2.17 µg/mL
- IC50 [2]: 1.44 µg/mL
B2: 嵌合抗体Chi2-2 chimeric antibody Chi2-2 (antibody, human IgG1, kappa, V domains shown)
VH: QVQLQQPGAELVRPGASVNLSCKTSGYSFTSYWMNWVKQRPGQGLEWIGMIHPSDSETWLNQKFKDKATLTVDKSSSTVHMQLSSPTSEDSAVFYCVRSMVWTRHVMDYWGQGTSVTVSS
VL: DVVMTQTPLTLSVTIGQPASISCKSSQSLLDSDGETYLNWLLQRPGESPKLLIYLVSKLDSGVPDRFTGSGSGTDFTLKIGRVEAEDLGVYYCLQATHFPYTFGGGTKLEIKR
notes: as for B1

- EC50 (hPD-L1(ECD)-mFc): 0.107 µg/mL
- Kd [3]: 674 pM
- IC50 [1]: 0.195 µg/mL
- IC50 [2]: 0.514 µg/mL
B3: 嵌合抗体1(Chi1) chimeric antibody 1 (antibody, human IgG1, kappa, V domains shown)
VH: EVQLQESGPGLAKPSQTLSLTCSVTGYSITSDYWNWIRRFPGNKLEYMGYISYTGSTYYNPSLKSRISITRDTSKNQYYLQLKSVTTEDTATYYCARGEAWDRRTLDCWGQGTSVTVSS
VL: DFQMTQTTSSLSASLGDRVTISCRASQDITNYLNWYQQKPDGTVKLLIYYTSRLHSGVPSRFSGSGSGSDYALTISNLEQEDIATYFCQQVYTLPWTFGRGTKLEIKR
notes: expressed in ExpiCHO; also called 母本嵌合抗体

- Kd [3]: 799 pM
B4: hu-Chi1-3.4 (antibody, human IgG1, kappa, V domains shown)
VH: QVQLQESGPGLVKPSQTLSLTCTVSGYSITSDYWNWIRQHPGKGLEYIGYISYTGSTYYNPSLKSRVTISRDTSKNQFSLKLSSVTAADTAVYYCARGEAWDRRTLDYWGQGTLVTVSS
VL: DFQMTQSPSSLSASVGDRVTITCRASQDITNYLNWYQQKPDKAVKLLIYYTSRLHSGVPSRFSGSGSGTDFTLTISSLQPEDFATYYCQQVYTLPWTFGQGTKLEIKR
notes: also called Chi1_VH.1D / Chi1_VL.1C
